According to the supplement of paper PMC11136658:

Tested on: peptide library, one residue held at a place counted from the Y acceptor
Experiment: relative phosphorylation of the sub-library (ratio to the mean residue at this position); higher = residue favoured
In short: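 In 384-well plates, purified recombinant kinases were incubated for 90 min with 50 μM ATP containing γ-32P-ATP and biotinylated Tyr-centred peptide libraries, each mixture fixing one residue at a single position between −5 and +5. After capture on streptavidin membranes and rinsing, peptides were quantified by phosphorimaging with ImageQuant. Per-position intensities were scaled to the sum of the 18 (Ser/Thr-free library: 16) randomized residues, then multiplied by that number.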

Chain of MKK7, construct: Full length, human (O14733 whole entry, looked up): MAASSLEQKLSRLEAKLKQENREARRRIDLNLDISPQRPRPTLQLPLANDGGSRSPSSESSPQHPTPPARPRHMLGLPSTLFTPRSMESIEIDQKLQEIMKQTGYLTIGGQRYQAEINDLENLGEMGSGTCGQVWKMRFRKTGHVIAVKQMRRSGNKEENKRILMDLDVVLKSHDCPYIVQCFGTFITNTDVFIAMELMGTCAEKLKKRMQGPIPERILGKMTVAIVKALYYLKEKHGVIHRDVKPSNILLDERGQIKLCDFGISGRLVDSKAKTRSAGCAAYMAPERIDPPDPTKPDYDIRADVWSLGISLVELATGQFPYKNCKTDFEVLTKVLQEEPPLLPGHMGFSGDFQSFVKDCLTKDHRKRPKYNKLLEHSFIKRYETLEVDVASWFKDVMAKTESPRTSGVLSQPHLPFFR
Chain of MUSK, construct: aa529-end, human (O15146 529-869, looked up): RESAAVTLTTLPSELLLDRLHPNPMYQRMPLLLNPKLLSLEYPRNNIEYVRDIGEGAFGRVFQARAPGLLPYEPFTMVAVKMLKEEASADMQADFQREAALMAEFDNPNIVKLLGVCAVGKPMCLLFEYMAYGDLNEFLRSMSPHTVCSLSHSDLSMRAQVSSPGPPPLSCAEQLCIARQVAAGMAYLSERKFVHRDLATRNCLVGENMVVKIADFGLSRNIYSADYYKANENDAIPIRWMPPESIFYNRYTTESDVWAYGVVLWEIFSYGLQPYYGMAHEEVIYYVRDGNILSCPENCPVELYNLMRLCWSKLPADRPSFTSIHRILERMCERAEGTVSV

MKK7, construct: Full length, human (from UniProt O14733)
relative phosphorylation
Conditions | at +1 | at +2 | at +3 | at +4 | at +5 | at -1 | at -2 | at -3 | at -4 | at -5
A fixed | 0.866 | 0.844 | 0.903 | 0.959 | 0.929 | 1.02 | 0.884 | 0.883 | 1.05 | 0.989
D fixed | 0.796 | 1.11 | 1.02 | 1.07 | 0.952 | 0.915 | 0.883 | 0.947 | 0.993 | 1.02
E fixed | 0.856 | 0.895 | 1.27 | 0.992 | 1.05 | 0.914 | 0.91 | 0.926 | 0.996 | 0.917
F fixed | 1.11 | 1.39 | 1.21 | 1.13 | 1.14 | 0.857 | 1.28 | 1.1 | 1.08 | 1.14
G fixed | 0.926 | 0.779 | 0.915 | 0.979 | 1.11 | 1.38 | 1.24 | 1.25 | 1.19 | 1.04
H fixed | 1 | 1.09 | 1.02 | 1.02 | 1.02 | 0.958 | 1.06 | 1.05 | 0.968 | 1.09
I fixed | 0.983 | 0.753 | 0.89 | 0.93 | 0.8 | 0.896 | 0.764 | 0.807 | 0.882 | 0.87
K fixed | 0.896 | 1.09 | 0.896 | 0.989 | 1.08 | 1.04 | 1.17 | 1.14 | 1.06 | 1.16
L fixed | 1.04 | 0.851 | 0.841 | 1.13 | 0.891 | 1.04 | 0.821 | 0.912 | 0.894 | 0.913
M fixed | 1.38 | 0.857 | 1.05 | 1.03 | 0.977 | 0.926 | 0.855 | 0.828 | 0.881 | 0.89
N fixed | 0.919 | 0.946 | 0.973 | 0.894 | 0.984 | 0.947 | 1.04 | 0.98 | 0.89 | 0.959
P fixed | 0.955 | 0.819 | 0.941 | 1.09 | 1.04 | 1.07 | 1.04 | 1.06 | 1.11 | 0.99
Q fixed | 0.873 | 0.929 | 1.09 | 0.881 | 0.991 | 0.951 | 0.891 | 1.07 | 0.974 | 0.952
R fixed | 1 | 1.09 | 1.01 | 0.97 | 1.13 | 1.12 | 1.29 | 1.24 | 1.13 | 1.16
V fixed | 0.918 | 0.844 | 0.822 | 0.828 | 0.73 | 0.85 | 0.803 | 0.794 | 0.844 | 0.802
W fixed | 1.49 | 1.72 | 1.14 | 1.11 | 1.18 | 1.12 | 1.07 | 1.01 | 1.06 | 1.1
pThr fixed | 0.894 | 1.05 | 0.876 | 1.08 | 1.01 | 1.09 | 0.859 | 1.08 | 1.05 | 1.11
pTyr fixed | 0.963 | 1.06 | 1.03 | 1.01 | 1.09 | 1.57 | 1.11 | 1.82 | 1.05 | 1.11

MST1R (from UniProt Q04912)
relative phosphorylation
Conditions | at +1 | at +2 | at +3 | at +4 | at +5 | at -1 | at -2 | at -3 | at -4 | at -5
A fixed | 0.871 | 0.845 | 0.68 | 0.963 | 1.06 | 0.744 | 0.976 | 0.932 | 1.03 | 0.978
D fixed | 0.356 | 0.803 | 0.406 | 0.696 | 0.865 | 1.38 | 1.03 | 1.2 | 1.02 | 0.894
E fixed | 0.55 | 0.767 | 0.281 | 0.622 | 0.874 | 1.01 | 0.864 | 1.06 | 0.966 | 0.851
F fixed | 1.62 | 0.938 | 1.28 | 1.1 | 0.582 | 1.06 | 0.794 | 0.996 | 1.1 | 1.1
G fixed | 0.645 | 0.821 | 0.766 | 1.17 | 1.25 | 0.665 | 1.38 | 1.21 | 1.25 | 1.13
H fixed | 1.3 | 0.906 | 0.968 | 1.11 | 1.03 | 1.12 | 0.938 | 0.991 | 0.847 | 0.989
I fixed | 1.51 | 1 | 2.14 | 0.923 | 0.473 | 1.36 | 0.957 | 0.801 | 0.85 | 0.932
K fixed | 0.618 | 1.14 | 0.612 | 0.921 | 1.66 | 0.806 | 1.04 | 1 | 1.08 | 1.13
L fixed | 1.32 | 1.15 | 1.67 | 0.924 | 0.626 | 1.29 | 0.903 | 0.937 | 1.04 | 1.07
M fixed | 1.15 | 0.99 | 1.32 | 1.1 | 0.715 | 0.904 | 0.685 | 0.845 | 0.941 | 0.974
N fixed | 0.594 | 1.13 | 0.492 | 0.82 | 1.23 | 1.25 | 0.978 | 1.01 | 0.796 | 0.864
P fixed | 0.672 | 0.967 | 1.17 | 1.03 | 1.57 | 0.768 | 1.31 | 1.09 | 1.16 | 1.07
Q fixed | 1.04 | 0.996 | 0.577 | 1.04 | 1.16 | 0.977 | 1.07 | 1.01 | 0.996 | 0.946
R fixed | 0.922 | 1.3 | 0.862 | 1.34 | 1.75 | 0.757 | 1.28 | 1.18 | 1.09 | 1.18
S fixed | 0.901 | 0.95 | 0.712 | 0.897 | 1.25 | 0.777 | 1.23 | 1.2 | 0.87 | 0.974
T fixed | 0.876 | 0.792 | 0.623 | 0.85 | 1.17 | 0.899 | 0.973 | 0.91 | 0.821 | 0.884
V fixed | 1.46 | 1.04 | 1.36 | 0.901 | 0.579 | 1.15 | 1.02 | 0.728 | 0.89 | 0.939
W fixed | 1.36 | 1.2 | 1.41 | 1.34 | 0.575 | 0.762 | 0.77 | 0.997 | 0.953 | 0.953
pThr fixed | 0.564 | 0.981 | 0.277 | 0.414 | 0.638 | 1.16 | 1.02 | 0.95 | 0.758 | 0.795
pTyr fixed | 1.73 | 1.79 | 0.651 | 1.11 | 0.728 | 2.14 | 1.1 | 1.13 | 1.04 | 0.922

MUSK, construct: aa529-end, human (from UniProt O15146)
relative phosphorylation
Conditions | at +1 | at +2 | at +3 | at +4 | at +5 | at -1 | at -2 | at -3 | at -4 | at -5
A fixed | 1.21 | 0.711 | 0.689 | 0.799 | 0.969 | 0.559 | 0.817 | 0.963 | 1.25 | 1.09
D fixed | 0.341 | 0.179 | 0.233 | 0.665 | 0.832 | 0.932 | 0.856 | 1.09 | 0.763 | 0.981
E fixed | 0.619 | 0.251 | 0.156 | 0.481 | 0.784 | 2.14 | 1.44 | 1 | 0.919 | 0.766
F fixed | 1.9 | 1.59 | 1.49 | 1.06 | 1.01 | 1.33 | 0.962 | 1.16 | 1.38 | 1.33
G fixed | 0.835 | 0.386 | 0.886 | 0.94 | 1.08 | 0.401 | 1.06 | 0.981 | 1.14 | 1.06
H fixed | 1.68 | 0.852 | 0.868 | 1.2 | 1.07 | 1.51 | 1.14 | 1.04 | 0.977 | 0.891
I fixed | 1.31 | 1.54 | 1.59 | 0.808 | 0.781 | 1.5 | 1.02 | 0.87 | 1.02 | 0.946
K fixed | 0.317 | 1.58 | 0.99 | 1.53 | 1.15 | 0.248 | 0.779 | 0.855 | 0.822 | 0.916
L fixed | 0.926 | 1.12 | 1.09 | 0.907 | 1.02 | 1.62 | 1.09 | 1.04 | 1.13 | 1.17
M fixed | 1.58 | 0.918 | 1.24 | 1.1 | 0.964 | 0.939 | 0.914 | 1.15 | 0.996 | 1.13
N fixed | 0.41 | 0.774 | 0.62 | 0.848 | 0.935 | 2.14 | 1.35 | 1.09 | 0.877 | 1.04
P fixed | 0.151 | 0.654 | 1.2 | 0.974 | 1.04 | 0.476 | 0.672 | 0.865 | 1.09 | 1.01
Q fixed | 0.768 | 0.847 | 0.48 | 1.11 | 0.786 | 0.782 | 1.04 | 0.881 | 1.06 | 1.11
R fixed | 0.541 | 2.19 | 2.06 | 1.57 | 1.66 | 0.255 | 0.976 | 0.866 | 0.972 | 0.892
S fixed | 0.58 | 0.819 | 0.591 | 1.04 | 0.858 | 0.437 | 1.05 | 1.09 | 0.721 | 0.804
T fixed | 0.563 | 0.862 | 0.843 | 0.771 | 0.987 | 0.465 | 1.03 | 0.936 | 0.627 | 0.663
V fixed | 1.55 | 1.69 | 1.48 | 0.86 | 0.836 | 1.19 | 0.921 | 0.874 | 0.881 | 0.962
W fixed | 2.72 | 1.05 | 1.49 | 1.36 | 1.24 | 1.06 | 0.892 | 1.25 | 1.39 | 1.25
pThr fixed | 1.15 | 0.475 | 0.215 | 0.619 | 0.435 | 1.32 | 0.741 | 0.718 | 0.587 | 0.773
pTyr fixed | 11.8 | 1.11 | 0.592 | 0.73 | 0.832 | 5.58 | 1.07 | 1.32 | 0.963 | 1.02
